The results in this text go back to patent US20180037910.

Data set [1] deals with Il2rg ZFN-2 (synthetic construct). As to the kind of experiment: cell_activity. Particulars: ZFN-1+ZFN-2 pair with LTVEC versus LTVEC alone, fold increase in targeting efficiency; 6 bp spacer; mouse F1H4 ES cells.
In data set [2] the test system is Il2rg ZFN-1 (synthetic construct). As to the kind of experiment: cell_activity. Particulars: ZFN-1+ZFN-2 pair with LTVEC versus LTVEC alone, fold increase in targeting efficiency; 6 bp spacer; mouse F1H4 ES cells.

“GTCTTCATTCGCACT (double strand) [Il2rg exon 1 ZFN-2 half-site (anti-sense strand)]” registered an activity in data set [1] of 4 fold.

The sequence “AGCTCCAAGGTCCTC (double strand) [Il2rg exon 1 ZFN-1 half-site (sense strand)]” came in with an activity in data set [2] of 4 fold.
